Experimental data as given in patent publication US11278600B2, “Human alpha-galactosidase variants” (Codexis, Inc., priority 2014, dated 2022).
Changes are numbered by the printed parent chain.

B1: 580 (protein)
chain: LDNGLARTPTMGWLHWERFMCNLDCQEEPDSCISEKLFMEMAERMVSEGWKDAGYEYLCIDDCWMAPQRDSEGRLQADPQRFPHGIRQLANHVHSKGLKLGIYADVGNKTCAGFPGSFGYYDIDAQTFADWGVDLLKFDGCYCDSLENLADGYKHMSLALNRTGRSIVYSCEWPLYMWPFQKPNYTEIRQYCNHWRNFADIDDSWASIKSILDWTSRNQERIVDVAGPGGWNDPDMLVIGNFGLSRDQQVTQMALWAIMAAPLFMSNDLRHISPQAKALLQDKDVIAINQDPLGKQGYQLRKGDNFEVWERPLSGDAWAVAIINRQEIGGPRSYTIPVASLGKGVACNPACFITQLLPVKRQLGFYNWTSRLKSHINPTGTVLLQLENTMQMSLKDLL
modifications: Synthetic Polypeptide sequence of Variant No. 580 of mature Human GLA
B2: 586 (protein)
chain: B1 chain with S210N, R246W
modifications: Synthetic Polypeptide sequence of Variant No. 586 of mature Human GLA
B3: 587 (protein)
chain: B1 chain with S210R, R246W
modifications: Synthetic Polypeptide sequence of Variant No. 587 of mature Human GLA
B4: 590 (protein)
chain: B1 chain with P179M, R246W
modifications: Synthetic Polypeptide sequence of Variant No. 590 of mature Human GLA
B5: 588 (protein)
chain: B1 chain with K96A, R246W
modifications: Synthetic Polypeptide sequence of Variant No. 588 of mature Human GLA
B6: 583 (protein)
chain: B1 chain with S210A, R246W, A350T
modifications: Synthetic Polypeptide sequence of Variant No. 583 of mature Human GLA
B7: 520 (protein)
chain: B1 chain with A77S, R246W
modifications: Synthetic Polypeptide sequence of Variant No. 520 of mature Human GLA
B8: 581 (protein)
chain: B1 chain with R246S
modifications: Synthetic Polypeptide sequence of Variant No. 581 of mature Human GLA
B9: 582 (protein)
chain: B1 chain with S210A, R246W
modifications: Synthetic Polypeptide sequence of Variant No. 582 of mature Human GLA
B10: 584 (protein)
chain: B1 chain with S210E, R246W
modifications: Synthetic Polypeptide sequence of Variant No. 584 of mature Human GLA
B11: 589 (protein)
chain: B1 chain with K96W, R246W
modifications: Synthetic Polypeptide sequence of Variant No. 589 of mature Human GLA
B12: 585 (protein)
chain: B1 chain with S210K, R246W
modifications: Synthetic Polypeptide sequence of Variant No. 585 of mature Human GLA

Tests used:
Format in all cases: biochemical
[1] = HTP-analysis of supernatants pretreated with base (MUGal hydrolysis); details: activity of the variant/activity of Rd3BB (SEQ ID NO: 13); challenge at pH 9.7
How it was run: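 GLA variants secreted from yeast INVSc1; culture supernatants pre-incubated with McIlvaine buffer pH 7.0–8.2 or 200 mM bicarbonate pH 9.1–9.7 at 37° C. for 1–18 h. Residual activity: MUGal (4 mM stock) hydrolysis at pH 4.3–4.8, 37° C., 30–180 min, carbonate quench; fluorescence Ex 355/Em 448 nm.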

[2] = HTP-analysis of supernatants pretreated with acid (MUGal hydrolysis); details: activity of the variant/activity of Rd3BB (SEQ ID NO: 13); challenge at pH 3.7
How it was run: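 GLA variants were secreted from INVSc1 yeast grown 66-84 h at 30° C. in SD-Ura with 2% glucose; supernatants were mixed with McIlvaine buffer pH 3.3-4.3 and held at 37° C. for 1-3 h. Residual activity on MUGal at pH 4.8 was then measured by fluorescence.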

[3] = HTP-analysis of yeast culture supernatants, no challenge (MUGal hydrolysis); details: activity of the variant/activity of Rd3BB (SEQ ID NO: 13)
How it was run: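 GLA variants expressed in yeast INVSc1, secreted into SD-Ura broth over 66-84 h at 30° C; clarified supernatants tested without challenge. Supernatant mixed with McIlvaine buffer pH 4.8 and 2 mM MUGal (citrate/KCl, pH 4.6), 37° C for 30-180 min, carbonate-quenched, fluorescence Ex 355/Em 448 nm.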

Molecule | Relative Activity of GLA Variants After Challenge at pH 9.7 [1] | Relative Activity of GLA Variants After Challenge at pH 3.7 [2] | Relative Activity of GLA Variants After No Challenge (NC) [3]
B1 | ++ (++ = >5 to 10 relative activity over Rd3BB (SEQ ID NO: 13)) | +++ (+++ = >10 relative activity over Rd3BB (SEQ ID NO: 13)) | + (+ = 1.5 to 5 relative activity over Rd3BB (SEQ ID NO: 13))
B2 | ++ (++ = >5 to 10 relative activity over Rd3BB (SEQ ID NO: 13)) | ++ (++ = >5 to 10 relative activity over Rd3BB (SEQ ID NO: 13)) | + (+ = 1.5 to 5 relative activity over Rd3BB (SEQ ID NO: 13))
B3 | ++ (++ = >5 to 10 relative activity over Rd3BB (SEQ ID NO: 13)) | + (+ = 1.5 to 5 relative activity over Rd3BB (SEQ ID NO: 13)) | + (+ = 1.5 to 5 relative activity over Rd3BB (SEQ ID NO: 13))
B4 | + (+ = 1.5 to 5 relative activity over Rd3BB (SEQ ID NO: 13)) | + (+ = 1.5 to 5 relative activity over Rd3BB (SEQ ID NO: 13)) | + (+ = 1.5 to 5 relative activity over Rd3BB (SEQ ID NO: 13))
B5 | + (+ = 1.5 to 5 relative activity over Rd3BB (SEQ ID NO: 13)) | + (+ = 1.5 to 5 relative activity over Rd3BB (SEQ ID NO: 13)) | + (+ = 1.5 to 5 relative activity over Rd3BB (SEQ ID NO: 13))
B6 | ++ (++ = >5 to 10 relative activity over Rd3BB (SEQ ID NO: 13)) | + (+ = 1.5 to 5 relative activity over Rd3BB (SEQ ID NO: 13)) | + (+ = 1.5 to 5 relative activity over Rd3BB (SEQ ID NO: 13))
B7 | + (+ = 1.5 to 5 relative activity over Rd3BB (SEQ ID NO: 13)) | + (+ = 1.5 to 5 relative activity over Rd3BB (SEQ ID NO: 13)) | + (+ = 1.5 to 5 relative activity over Rd3BB (SEQ ID NO: 13))
B8 | ++ (++ = >5 to 10 relative activity over Rd3BB (SEQ ID NO: 13)) | ++ (++ = >5 to 10 relative activity over Rd3BB (SEQ ID NO: 13)) | + (+ = 1.5 to 5 relative activity over Rd3BB (SEQ ID NO: 13))
B9 | ++ (++ = >5 to 10 relative activity over Rd3BB (SEQ ID NO: 13)) | + (+ = 1.5 to 5 relative activity over Rd3BB (SEQ ID NO: 13)) | + (+ = 1.5 to 5 relative activity over Rd3BB (SEQ ID NO: 13))
B10 | ++ (++ = >5 to 10 relative activity over Rd3BB (SEQ ID NO: 13)) | + (+ = 1.5 to 5 relative activity over Rd3BB (SEQ ID NO: 13)) | + (+ = 1.5 to 5 relative activity over Rd3BB (SEQ ID NO: 13))
B11 | + (+ = 1.5 to 5 relative activity over Rd3BB (SEQ ID NO: 13)) | + (+ = 1.5 to 5 relative activity over Rd3BB (SEQ ID NO: 13)) | + (+ = 1.5 to 5 relative activity over Rd3BB (SEQ ID NO: 13))
B12 | ++ (++ = >5 to 10 relative activity over Rd3BB (SEQ ID NO: 13)) | + (+ = 1.5 to 5 relative activity over Rd3BB (SEQ ID NO: 13)) | + (+ = 1.5 to 5 relative activity over Rd3BB (SEQ ID NO: 13))
